The nanobody polyreactivity screen of Harvey et al. (2022)

Assay: yeast display, Sf9 membrane polyspecificity reagent, FACS + sequencing; frameworks hold sequencing errors
How it was run: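 A synthetic nanobody library was expressed on Saccharomyces cerevisiae BJ5465 by galactose induction for 36–48 hours. The library was stained for 1 hour at 4 °C with 10% biotinylated, detergent-solubilized Sf9 membrane reagent and enriched with streptavidin microbeads before FACS. Low and high (top ~1%) gates were set on anti-HA fluorescence for expression and streptavidin fluorescence for reagent binding, and each polyreactivity label reflects the gate of origin.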

| Sequence | polyreactivity (PSR sort gate) |
| --- | --- |
| QVQLVESGGGLVQAGGSLRLSCAASGRIFTYYAMGWYRQAPGKEREFVAAISRSGGSTYYADSVKGRFTISRDNAKNTVYFQMNSLKPEDTAVYSCAADPPYRGRRGFDHNYWGQGTQVTVSS | high polyreactivity |
| QVQLVESGGGLVQAGGSLRLSCAASGRIFTYYAMGWYRQAPGKERELVAAINFNSGSTYYADSVKGRFTISRDTAKNTVYLQMNSLKPEDTAVYYCAAVPRRGLPKSYYYWGQGTQVTVSS | high polyreactivity |
| QVQLVESGGGLVQAGGSLRLSCAASGRIFTYYAMGWYRQAPGKERELVAAITGSGGSTYYADSVKGRFTISRDNAKNTVYLQMNSLKPEDTAVYYCAAYWFTATWYYYWGQGTQVTVSS | high polyreactivity |
| QVQLVESGGGLVQAGGSLRLSCAASGRIFTYYAMGWYRQAPGKERELVASITGSGGSTDYADSVKGRFTISLDNAKNTVYLQMNSLKPEDTAVYYCAADHSGVSRYDYWGQGTQVTVSS | low polyreactivity |
| QVQLVESGGGLVQAGGSLRLSCAASGRIFTYYAMGWYRQVPGKERELVAGISGSGTSTYYADSVKGRFTISRDNAKNTVYLQMNSLKPEDTAVYYCAAIRRQKGLWDYYYWGQGTQVTVSS | low polyreactivity |
| QVQLVESGGGLVQAGGSLRLSCAASGRIFVANAMGWYRPAPGKERELVAAISGRGSRTYYADSVKGRFTISRDNAKNTVYLQMNSLKPEDTAVYYCAVRKNRQYTGDYWGQGTQVTVSS | high polyreactivity |
| QVQLVESGGGLVQAGGSLRLSCAASGRIFVANAMGWYRQAPGKERELVAAISGRGSRTYYADSVKGRFTISRDNAKNTVYLQMNSLKPEDTAVYYCAARYRYDGRYDYWGQGTQVTVSS | high polyreactivity |
| QVQLVESGGGLVQAGGSLRLSCAASGRIFVANAMGWYRQAPGKERELVAAISSSGSTNYADSVKGRFTISRDNAKNTVYLQMNSLKPEDTAVYYCAKQHLSTGSWFDPFEMDYWGQGTQVTVSS | low polyreactivity |
| QVQLVESGGGLVQAGGSLRLSCAASGRIFVFNAMGWYRQAPGKERELVAAITWSGGTTYYADSVKGRFTISRDNAKNTVYLQMNSLKPEDTAVYFCNAYLNRRMGYWGQGTQVTVSS | high polyreactivity |
| QVQLVESGGGLVQAGGSLRLSCAASGRIFVFNDMGWYRQAPGKERELVAAISSGGNTYYADSVKGRFTISRDNAKNTVYLQMNSLKPEDTAVYYCAKVSRWSYKGSPYDYWGQGTQVTVSS | high polyreactivity |
| QVQLVESGGGLVQAGGSLRLSCAASGRIFVGNAMGWYRQAPGKERELVAAISRSGGRTYYADSVKGRFTISRDNAKNTVYLQMNSLKPEDTAVYYCYTRVYAGKYDYWGQGTQVTVSS | high polyreactivity |
| QVQLVESGGGLVQAGGSLRLSCAASGRIFVGYAMGWYRQAPGKERELVAAISRGGSTNYADSVKGRFTISRDNAKNTVYLQMNSLKPDDTAVYYCAKTYRTRWWGNGGDYWGQGTQVTVSS | high polyreactivity |
| QVQLVESGGGLVQAGGSLRLSCAASGRIFVGYAMGWYRQAPGKVREFFAAITWSGGSTSYADSVKGRFTISRDNAKNTVYLQKNSLKPEDTAVYYCNARRYYYFGLSLYEYDYWGQGTQVTVSS | low polyreactivity |
| QVQLVESGGGLVQAGGSLRLSCAASGRIFVINAMGWYRQAPGKERELVAAISSSGGSTSYADSVKGRFTISRDNAKNTVYFQMNSLKPEDTAVYYCAAKPRVRRVDGYYWGQGTQVTVSS | high polyreactivity |
| QVQLVESGGGLVQAGGSLRLSCAASGRIFVINAMGWYRQAPGKERELVAAISSSGGSTSYADSVKGRFTISRDNAKNTVYLQMNSLKPEDTAVYYCAAKPRVRRVDGYYWGQGSQVTVSS | high polyreactivity |
| QVQLVESGGGLVQAGGSLRLSCAASGRIFVIYAMGWYRQAPGKERELVAVISSDGSTYYADSVKGRFTISRDNAKNTVYLQMNSLKPEDTAVYYCAADRIGRYRPYIGWVVRSYYWGQGTQVTVSS | low polyreactivity |
| QVQLVESGGGLVQAGGSLRLSCAASGRIFVLYAMGWYRHSPGKERELVAAINWSGGSTFYADSVKGRFTISRDNAKNTVYLQMNSLKPEDTAVYYCNARGLRVKYDYWGQGTQVTVSS | high polyreactivity |
| QVQLVESGGGLVQAGGSLRLSCAASGRIFVLYAMGWYRQAPGKERELVAAINWSGGSTFYADSVKGRFTISRDNAKNTVYLQMNSLKPEDTAVYYCAADPYFWSALRIGQNDYWGQGTQVTVSS | high polyreactivity |
| QVQLVESGGGLVQAGGSLRLSCAASGRIFVNNAMGWYRPAPGKERELVAAISKRGGSTYYADSLKGRFTISRDNAMNTVYLHMNSLKPEDTAVYYCAASGYRYPIDGDYWGQGTEVTVSS | high polyreactivity |
| QVQLVESGGGLVQAGGSLRLSCAASGRIFVNYAMGWYRQAPGKERELVAAITSSGGSTYYADSVKGRFTISRDNAKNTVYLQMNSLKPEDTAVYYCAARWGRGLEFDYWGQGTQVTVSS | high polyreactivity |
| QVQLVESGGGLVQAGGSLRLSCAASGRIFVPYVMGWYRQAPGKERELVAAISSSGGSTYYADSVKGRFTISRDNAKNTVYLQMNSLKQEDTAVYYCAKPYYFHEEDHWGQGSQVTVSS | low polyreactivity |
| QVQLVESGGGLVQAGGSLRLSCAASGRIFVPYVMGWYRQAPGKERELVASISDSDTSTYYADSVKGRFTISRDNAKNTVYLQMNCLKPEDTAVYYCNVDYWGQGTQVTVSS | low polyreactivity |

| Sequence | polyreactivity (PSR sort gate) |
| --- | --- |
| QVQLVESGGGLVQAGGSLRLSCAASGRIFVPYVMGWYRQAPGKERELVASISDSDTSTYYADSVKGRFTISRDNAKNTVYLQMNSLKPEDSAVYYCNVDYWGQGTQVTVSS | low polyreactivity |
| QVQLVESGGGLVQAGGSLRLSCAASGRIFVPYVMGWYRQAPGKERELVASISDSDTSTYYADSVKGRFTISRDNAKNTVYVQMNSLKPEDTAVYYCNVDYWGQGTQVTVSS | low polyreactivity |
| QVQLVESGGGLVQAGGSLRLSCAASGRIFVQYAMGWYRQAPGKERELVAAISGSGGRTYYADSVKGRFTISRDNAKNTVYLQMNSLKPEDTAVYYCNTARLHGQTQGGDYWGQGTQVTVSS | high polyreactivity |
| QVQLVESGGGLVQAGGSLRLSCAASGRIFVQYAMGWYRQAPGKERELVAAISGSGGRTYYADSVKGRFTISRDNAKNTVYLQMNSLKPEDTAVYYCNTARRHGQTQGGDYWGQGTQLTVSS | high polyreactivity |
| QVQLVESGGGLVQAGGSLRLSCAASGRIFVRNAMGWYRQAPGKERELVADITNGGSTNYADSVKGRFTITRDNAKNTVYLQMNSLKPEDTAVYYCAADTLGVYDGDYWGQVTQVTVSS | low polyreactivity |
| QVQLVESGGGLVQAGGSLRLSCAASGRIFVRYAMGWYRQAPGKERELVAAISWSAGSTYYADSVKGRFTISRDNAKNTVYLQMNSLKPEDTAVYYCAAEYGNYETGHYGIYDYWGQGTQVTVSS | low polyreactivity |
| QVQLVESGGGLVQAGGSLRLSCAASGRIFVRYARGWYSQAPGKERELVAAITSGGRTSYADSVKGRFTISRDNAKNTVYLQMNSLKPEDTAVYYWNVVSRNSIRFDYWGQGTQVTVSS | high polyreactivity |
| QVQLVESGGGLVQAGGSLRLSCAASGRIFVRYTMGWYRQAPGKERELVAAITKRGGSTYYADSVKGRFTISRDNAKNTVYLQMNSLKPEDTAVYYCATDGLGYNRPQDEYWGLGTQVTVSS | high polyreactivity |
| QVQLVESGGGLVQAGGSLRLSCAASGRIFVSNAMGWYRLAPGKERELVATISRSGGNTYYADSVKGRFTISRDNAKNTVYLQMNSLKPEYTAVYYSNSVSRRSYVKYDYWRQGTQVTVSS | high polyreactivity |
| QVQLVESGGGLVQAGGSLRLSCAASGRIFVSNTMGWYRQAPGKERELVAVIRTDSGSTYYADSVKGRFTISRDNAKNTVYLQMNSLKPEDTAVYYCAKVAYFASYRTGFYYWGQGTQVTVSS | high polyreactivity |
| QVQLVESGGGLVQAGGSLRLSCAASGRIFVSNVRGWYRQAPGKERELVAAIDKSGGSTYYADSVKGRFTISRDNAKNSVYLQMNSLKPEDTAVYYCAATSYRQPYRYYYWGQGTQVTVSS | high polyreactivity |
| QVQLVESGGGLVQAGGSLRLSCAASGRIFVSYAMGWYRQAPGKERELVAAISRGGSTYYADSVKGRFTISRDNAKNTVYLQMNSLKPEDTAVYYCAARPSYRYGYWGQGTQVTVSS | high polyreactivity |
| QVQLVESGGGLVQAGGSLRLSCAASGRIFVSYAMGWYRQAPGKERELVATINIGSDTYYADSVKGRFTISRDNAKNTVYLQMNSLKPEDTAVYYCAKDYYEGDSYPYPGYEYWGQGTQVTVSS | low polyreactivity |
| QVQLVESGGGLVQAGGSLRLSCAASGRIFVTYAMGWYRQEPGKERELVAAISASGGSTYSADSVKGRFTISRDNAKNTVYLQMNSLKPEDTAVYYCAASYRSSLRPWAEDGFWGQGTQVTVSS | high polyreactivity |
| QVQLVESGGGLVQAGGSLRLSCAASGRIFVVNAMGWYRQAPGKERELVAAISRSGGSTYYADSVKGRFTISRDNAKNTVYLQMNSLKPEETAVYFCAAVSWIYSFSAMSIYDYWGQGTQVTVSS | high polyreactivity |
| QVQLVESGGGLVQAGGSLRLSCAASGRIFVVNAMGWYRQAPGKERELVAAITRRGGSTYADSVKGRFTISRDNAKNTVYLQMNSLKPEDTAVYYCNAESYSGIFSYKYDYWGQGTQVTVSS | high polyreactivity |
| QVQLVESGGGLVQAGGSLRLSCAASGRIFVYNAMGWYRQAPGKEREFVATITSSGGRTYYADSVKGRFTISRDNAKNTVYLQMNSLKPEDTAVYYCAARPQNNGRNPVYRYNYWGQGTQVTVSS | high polyreactivity |
| QVQLVESGGGLVQAGGSLRLSCAASGRIFVYNAMGWYRQAPGKERELVAAITSGGSTYYADSVKGRFTISRDNAKNTVYLQMNSLKPEDTAVYYCAATYFSYTYSRYDYWGQGTQVTVSS | high polyreactivity |
| QVQLVESGGGLVQAGGSLRLSCAASGRIFVYNAMGWYRQAPGKERELVAGINGSGGSTYYAASVKGRFRISRDHAKNSVYLQMNSLKPEDTAGYYCNAWISYGYFIFDYWGQGTQVTVSS | high polyreactivity |
| QVQLVESGGGLVQAGGSLRLSCAASGRIFVYNAMGWYRQAPGKERELVASISWSGDSTYADSVKGRFTISRDNAKNTVYLQMNSLKPEDTAVYYCAADNGSKEFDYWGQGTQVTVSS | low polyreactivity |
| QVQLVESGGGLVQAGGSLRLSCAASGRIFVYYAMGWYRPAPGKERELVATITETGGSTYYADSVKGRFTISRDNAKNTVYLQMNSLKPEDSAVYYCNADYWGTYGWDWYWYVYWGQGTQVTVSS | low polyreactivity |
